# Experimental data from patent publication US20210032664, “ENGINEERED MEGANUCLEASES WITH RECOGNITION SEQUENCES FOUND IN THE HUMAN BETA-2 MICROGLOBULIN GENE” (Precision Biosciences, Inc., published 2021).
# T1: B2M 13-14x.317 (Artificial Sequence)
# T1 chain: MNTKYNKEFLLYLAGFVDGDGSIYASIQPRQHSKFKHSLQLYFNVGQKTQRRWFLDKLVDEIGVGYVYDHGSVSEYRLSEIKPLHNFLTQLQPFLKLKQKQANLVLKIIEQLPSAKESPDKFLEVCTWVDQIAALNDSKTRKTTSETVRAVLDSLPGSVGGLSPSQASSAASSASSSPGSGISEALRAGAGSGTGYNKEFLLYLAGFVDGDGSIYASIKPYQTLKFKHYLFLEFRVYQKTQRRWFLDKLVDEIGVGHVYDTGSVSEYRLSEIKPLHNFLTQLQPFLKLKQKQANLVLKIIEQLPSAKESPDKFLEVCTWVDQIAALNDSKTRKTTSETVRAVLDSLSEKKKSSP
# T2: B2M 13-14x.556 (Artificial Sequence)
# T2 chain: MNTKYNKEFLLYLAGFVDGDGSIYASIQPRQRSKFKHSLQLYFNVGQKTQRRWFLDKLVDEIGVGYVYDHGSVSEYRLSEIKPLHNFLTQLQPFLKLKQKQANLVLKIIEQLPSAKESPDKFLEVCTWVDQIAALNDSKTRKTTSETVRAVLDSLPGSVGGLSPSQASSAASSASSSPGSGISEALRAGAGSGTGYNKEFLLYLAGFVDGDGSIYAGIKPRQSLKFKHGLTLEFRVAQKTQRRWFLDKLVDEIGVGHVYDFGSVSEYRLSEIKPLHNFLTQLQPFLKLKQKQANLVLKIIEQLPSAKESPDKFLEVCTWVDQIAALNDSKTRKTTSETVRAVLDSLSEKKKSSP
# T3: B2M 13-14x.464 (Artificial Sequence)
# T3 chain: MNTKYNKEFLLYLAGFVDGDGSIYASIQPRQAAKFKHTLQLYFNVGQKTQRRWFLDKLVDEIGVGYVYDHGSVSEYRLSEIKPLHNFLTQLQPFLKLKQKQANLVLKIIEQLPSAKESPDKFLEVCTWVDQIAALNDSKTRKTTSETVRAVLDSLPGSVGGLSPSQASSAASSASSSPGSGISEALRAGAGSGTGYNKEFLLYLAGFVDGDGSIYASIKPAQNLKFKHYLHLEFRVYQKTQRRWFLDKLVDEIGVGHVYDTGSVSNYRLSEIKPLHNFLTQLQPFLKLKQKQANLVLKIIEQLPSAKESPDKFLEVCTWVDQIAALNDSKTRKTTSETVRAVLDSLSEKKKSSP
# T4: B2M 13-14x.362 (Artificial Sequence)
# T4 chain: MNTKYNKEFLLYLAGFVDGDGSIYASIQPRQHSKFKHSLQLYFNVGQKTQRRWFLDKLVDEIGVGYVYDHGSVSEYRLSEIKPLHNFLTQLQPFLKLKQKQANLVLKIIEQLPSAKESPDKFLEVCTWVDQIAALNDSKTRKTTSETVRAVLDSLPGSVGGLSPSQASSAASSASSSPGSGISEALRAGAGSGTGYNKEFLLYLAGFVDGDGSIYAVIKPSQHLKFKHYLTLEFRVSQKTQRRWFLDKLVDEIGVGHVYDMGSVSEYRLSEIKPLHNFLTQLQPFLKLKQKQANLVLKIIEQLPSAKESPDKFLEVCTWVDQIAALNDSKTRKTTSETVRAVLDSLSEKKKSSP
# T5: B2M 13-14x.287 (Artificial Sequence)
# T5 chain: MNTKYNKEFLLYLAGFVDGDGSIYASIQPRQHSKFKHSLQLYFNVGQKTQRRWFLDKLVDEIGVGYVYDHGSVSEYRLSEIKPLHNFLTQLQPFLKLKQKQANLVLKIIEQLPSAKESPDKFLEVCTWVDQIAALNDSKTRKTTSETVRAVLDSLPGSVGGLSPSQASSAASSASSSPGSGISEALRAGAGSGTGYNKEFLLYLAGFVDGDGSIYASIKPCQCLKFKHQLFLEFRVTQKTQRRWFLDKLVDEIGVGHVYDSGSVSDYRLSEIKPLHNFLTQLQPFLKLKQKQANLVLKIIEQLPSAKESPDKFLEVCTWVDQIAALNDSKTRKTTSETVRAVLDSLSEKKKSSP
# T6: B2M 13-14x.456 (Artificial Sequence)
# T6 chain: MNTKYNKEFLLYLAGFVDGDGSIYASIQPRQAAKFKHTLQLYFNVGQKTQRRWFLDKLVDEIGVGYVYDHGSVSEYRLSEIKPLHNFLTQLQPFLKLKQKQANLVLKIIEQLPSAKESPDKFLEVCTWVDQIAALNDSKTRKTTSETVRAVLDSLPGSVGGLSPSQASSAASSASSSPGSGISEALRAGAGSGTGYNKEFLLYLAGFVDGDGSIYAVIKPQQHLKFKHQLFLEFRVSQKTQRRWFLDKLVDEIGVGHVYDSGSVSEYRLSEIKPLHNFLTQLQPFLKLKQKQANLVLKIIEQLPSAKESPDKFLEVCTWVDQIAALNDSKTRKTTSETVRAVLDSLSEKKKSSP
# T7: B2M 13-14x.286 (Artificial Sequence)
# T7 chain: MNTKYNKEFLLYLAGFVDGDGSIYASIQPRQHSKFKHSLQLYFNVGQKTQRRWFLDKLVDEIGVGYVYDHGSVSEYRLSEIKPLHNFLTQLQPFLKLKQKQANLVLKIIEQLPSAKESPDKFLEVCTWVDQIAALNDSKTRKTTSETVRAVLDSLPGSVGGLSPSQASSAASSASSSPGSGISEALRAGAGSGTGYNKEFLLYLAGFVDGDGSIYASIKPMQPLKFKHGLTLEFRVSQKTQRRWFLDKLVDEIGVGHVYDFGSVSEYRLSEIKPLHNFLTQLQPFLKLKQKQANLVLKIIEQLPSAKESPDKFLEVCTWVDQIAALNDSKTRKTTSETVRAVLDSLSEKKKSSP
# Experiments:
# Test in all cases: cell_activity; human T cells, 1 ug mRNA, day 3
# Details in all cases: tags: N-terminal SV40 NLS
# B2M 13-14x.317 = target: T1, B2M 13-14x.317
# Method: (§1) Donor human T cells were stimulated with anti-CD3 and anti-CD28 antibodies for 3 days, then electroporated with mRNA encoding a given B2M 13-14 meganuclease (1 μg) using the Amaxa 4D-Nucleofector (Lonza) according to the manufacturer's instructions. To look for the loss of B2M surface expression, cells were stained with an antibody recognizing β-2 microglobulin (BD Biosciences) as well as an antibody recognizing CD3 (BioLegend), a marker of T cells.
# B2M 13-14x.556 = target: T2, B2M 13-14x.556
# Method: as §1
# B2M 13-14x.464 = target: T3, B2M 13-14x.464
# Method: as §1
# B2M 13-14x.362 = target: T4, B2M 13-14x.362
# Method: as §1
# B2M 13-14x.287 = target: T5, B2M 13-14x.287
# Method: as §1
# B2M 13-14x.456 = target: T6, B2M 13-14x.456
# Method: as §1
# B2M 13-14x.286 = target: T7, B2M 13-14x.286
# Method: as §1
binder,measurement,setting,value
B2M 13-14 recognition sequence (dsDNA) DNA 1: CTATCTCTTGTACTACACTGAA DNA 2: TTCAGTGTAGTACAAGAGATAG,activity,B2M 13-14x.317,3.91 % B2M-negative
same,activity,B2M 13-14x.556,11.8 % B2M-negative
same,activity,B2M 13-14x.464,8.24 % B2M-negative
same,activity,B2M 13-14x.362,37.8 % B2M-negative
same,activity,B2M 13-14x.287,75.7 % B2M-negative
same,activity,B2M 13-14x.456,15.7 % B2M-negative
same,activity,B2M 13-14x.286,44.6 % B2M-negative
